In PMC9539395 (2022):

Experiments:
Assay in all cases: BLI
[1] = target: T1, Wuhan RBD‐8his (SARS-CoV-2, UniProt P0DTC2)
[2] = target: T1, Wuhan RBD‐8his; remark: listed apart in the source
[3] = target: T2, gamma RBD (SARS-CoV-2, UniProt P0DTC2)
[4] = target: T2, gamma RBD; remark: listed apart in the source

B1: sACE2_(2).v2.4(NN)‐IgG1 (Fc fusion)
chain: QSTIEEQAKYFLDKFNHEAEDLFYQSSLASWNYNTNITEENVQNMNNAGDKWSAFLKEQSTTAQMYPLQEIQNLTVKLQLQALQQNGSSVLSEDKSKRLNTILNTMSTIYSTGKVCNPDNPQECLLLEPGLNEIMANSLDYNERLWAWESWRSEVGKQLRPLYEEYVVLKNEMARANHYEDYGDYWRGDYEVNGVDGYDYSRGQLIEDVEHTFEEIKPLYEHLHAYVRAKLMNAYPSYISPIGCLPAHLLGDMWGRFWTNLYSLTVPFGQKPNIDVTDAMVDQAWDAQRIFKEAEKFFVSVGLPNMTQGFWEYSMLTDPGNVQKAVCHPTAWDLGKGDFRILMCTKVTMDDFLTAHNEMGNIQYDMAYAAQPFLLRNGANEGFHEAVGEIMSLSAATPKHLKSIGLLSPDFQEDNETEINFLLKQALTIVGTLPFTYMLEKWRWMVFKGEIPKDQWMKKWWEMKREIVGVVEPVPHDETYCDPASLFHVSNDYSFIRYYTRTLYQFQFQEALCQAAKHEGPLHKCDISNSTEAGQKLFNMLRLGKSEPWTLALENVVGAKNMNVRPLLNYFEPLFTWLKDQNKNSFVGWSTDWSPYADQSIKVRISLKSALGDKAYEWNDNEMYLFRSSVAYAMRQYFLKVKNQMILFGEEDVRVANLKPRISFNFFVTAPKNVSDIIPRTEVEKAIRMSRSRINDAFRLNDNSLEFLGIQPTLG
Kd [1]: 0.5 nM
koff [2]: 0.00032 s⁻¹
koff [3]: 0.00043 s⁻¹
Kd [4]: 0.5 nM
